Tested on: NaPi2b expressing tumors
Test: Phase 1b study of XMT-1536: duration on study and reason for discontinuation
Type: in vivo, human
Excerpt: The study presented herein is an open label, multi-center Phase 1b study of XMT-1536 administered as an intravenous infusion once every three or four weeks. The dose escalation (DES) part of the study will establish the maximum tolerated dose (MTD) or recommended Phase 2 dose (RP2D) for XMT-1536 in patients with a number of tumor types likely to express NaPi2b, with a focus on patients with platinum-resistant ovarian cancer and non-squamous non-small cell lung cancer (NSCLC). […] The RP2D may differ from the MTD and may take into account tolerability, pharmacokinetic and pharmacodynamic measures, and efficacy of XMT-1536 based on RECIST 1.1. After the first cycle, patients may continue to receive XMT-1536 until disease progression provided the drug is well-tolerated and patients continue to derive clinical benefit in the opinion of the Investigator. The DES segment of the study utilized an accelerated titration design. The first 3-week cycle of treatment constitutes the dose limiting toxicity (DLT) evaluation period. For the first two dose levels, a minimum of 1 patient was treated at each dose level. If this patient experiences a treatment-emergent adverse event of Grade 2 or higher, 2 additional patients will be added at this dose level, and the study will subsequently follow a 3+3 design, as described below. […] Starting with Dose Level 3, the study will follow a standard 3+3 design, with 3 patients enrolled initially at each dose level. […] However, in the event of 1 DLT, 3 additional patients will be enrolled at the same dose level. Any dose level with 2 or more DLTs will be considered to exceed the MTD and subsequent patients will be enrolled at lower dose level(s). After the first cycle, patients may continue to receive XMT-1536 until disease progression if the drug is well-tolerated and patients continue to derive clinical benefit in the opinion of the Investigator.
After an August 2018 protocol amendment, each cycle will be 4-week (28 day) dose cycle. The first two, 4-week cycles of treatment (56 days) constitutes the dose limiting toxicity (DLT) evaluation period. Beginning with this amendment, up to 10 patients will be enrolled for evaluation at 20.0 mg/m^2 under the new 4-week cycle dose regimen. If that dose is cleared by the SRC, subsequent dose groups will follow a modified 3+3 design. Three patients will be enrolled initially and if toxicity issues arise, the SRC will review all pertinent data and may decide to add more patients to fully evaluate a dose in question and/or lower the dose. […] The observation period for DLTs is 56 days, between Day 1 through the end of Cycle 2 which includes the pre-dose assessments before receiving the Cycle 3 dose. A maximum of ten patients will be enrolled per dose level prior to the SRM. that will be conducted no later than 5 days after at least the sixth patient dosed in each level has completed Cycle 2, Day 28 evaluations. The data available for the patients dosed in all prior will be factored into the data review for each applicable dose escalation SRM. Any dose level with 2 or more DLTs occurring in 6 or fewer treated patients will be considered to exceed the MTD and subsequent patients will be enrolled at lower dose level(s). After the second cycle, patients may continue to receive XMT-1536 until disease progression if the drug is well-tolerated and patients continue to derive clinical benefit in the opinion of the Investigator. After completion of DES, the EXP segment of the study will be opened.
Treatment will continue indefinitely unless one of the following occurs: disease progression, inter-current illness that prevents further administration of treatment, unacceptable adverse events or pregnancy, patient non-compliance with the protocol, patient withdraws consent for participation from the study, and/or general or specific changes in the patient's condition render the patient unacceptable for further treatment in the judgment of the Investigator.

[1] = doses of 20 mg/m^2 and higher (n=18)

B1: XMT-1536: about 10-15 molecules of auristatin F-hydroxypropyl amide conjugated to a cysteine moiety of NaPi2b monoclonal antibody XMT-1535 via a PHF scaffold (conjugate, chains of the INN, looked up)
VH: QVQLVQSGAEVVKPGASVKMSCKASGYTFTGYNIHWVKQAPGQGLEWIGAIYPGNGDTSYKQKFRGRATLTADTSTSTVYMELSSLRSEDSAVYYCARGETARATFAYWGQGTLVTVSS
VL: DIQMTQSPSSLSASVGDRVTITCSASQDIGNFLNWYQQKPGKTVKVLIYYTSSLYSGVPSRFSGSGSGTDYTLTISSLQPEDFATYYCQQYSKLPLTFGQGTKLELK
modifications: auristatin F-hydroxypropyl amide via PHF scaffold
notes: about 10-15 molecules of auristatin F-hydroxypropyl amide conjugated to a cysteine moiety of NaPi2b monoclonal antibody XMT-1535 via a PHF scaffold
All NSCLC, N 3
  Treatment duration >16 weeks: 33%
  Treatment duration >16 weeks, patients: 1
All Ovarian Cancer (OC), N 19
  Treatment duration >16 weeks: 42%
  Treatment duration >16 weeks, patients: 8
DL1 3 mg/m^2, n = 1
  discontinued for Progressive Disease per RECIST, patients: 1
DL2 6 mg/m^2, n = 1
  discontinued for Progressive Disease per RECIST, patients: 1
DL3 12 mg/m^2, n = 7
  discontinued for Clinical Progression, patients: 4
  discontinued for Progressive Disease per RECIST, patients: 3
DL4 & 4A 20 mg/m^2, n = 13
  discontinued for Clinical Progression, patients: 2
  discontinued for Progressive Disease per RECIST, patients: 7
DL5 & 5A 30 mg/m^2, n = 11
  discontinued for Clinical Progression, patients: 3
  discontinued for Progressive Disease per RECIST, patients: 6
NSCLC ≥ 20 mg/m^2, N 2
  Treatment duration >16 weeks: 50%
  Treatment duration >16 weeks, patients: 1
OC + NSCLC ≥ 20 mg/m^2, N 18
  Treatment duration >16 weeks: 56%
  Treatment duration >16 weeks, patients: 10
OC ≥ 20 mg/m^2, N 16
  Treatment duration >16 weeks: 57%
  Treatment duration >16 weeks, patients: 9
OC ≥ 30 mg/m^2, N 7
  Treatment duration >16 weeks: 43%
  Treatment duration >16 weeks, patients: 3
Total, n = 34
  discontinued for Clinical Progression: (26%)
  discontinued for Clinical Progression, patients: 9
  discontinued for Progressive Disease per RECIST: (53%)
  discontinued for Progressive Disease per RECIST, patients: 18
[1]
  treatment duration of >16 weeks: 50%
  treatment duration of >16 weeks, patients: 9

Source: patent publication US11407825B2, “NaPi2b-targeted polymer antibody-drug conjugates and methods of use thereof” (Mersana Therapeutics, Inc., priority 2018, dated 2022)
